Patent CN111153992A (BEIJING CHEST HOSPITAL CAPITAL MEDICAL UNIV; BEIJING …, dated 2020)
Changes are numbered by the printed parent chain.

T1: 结核分枝杆菌特异性重组蛋白MPT32 (Mycobacterium tuberculosis, UniProt P9WIR7 40-325)
T1 sequence (looked up): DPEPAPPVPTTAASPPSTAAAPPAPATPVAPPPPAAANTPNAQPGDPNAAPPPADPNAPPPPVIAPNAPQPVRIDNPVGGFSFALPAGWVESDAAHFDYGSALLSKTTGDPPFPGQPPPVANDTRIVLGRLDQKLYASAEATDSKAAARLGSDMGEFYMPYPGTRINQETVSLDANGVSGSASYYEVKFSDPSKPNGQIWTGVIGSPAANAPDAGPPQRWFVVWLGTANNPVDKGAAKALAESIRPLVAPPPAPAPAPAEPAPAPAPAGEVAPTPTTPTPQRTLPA

T2: 结核分枝杆菌特异性重组蛋白EspC (Mycobacterium tuberculosis, UniProt P9WJD7 1-103)
T2 sequence (looked up): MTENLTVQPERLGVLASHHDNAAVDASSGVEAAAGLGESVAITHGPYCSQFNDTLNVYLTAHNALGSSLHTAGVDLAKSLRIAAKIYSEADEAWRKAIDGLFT

T3: 结核分枝杆菌特异性重组蛋白MPT64 (Mycobacterium tuberculosis, UniProt P9WIN9 24-228)
T3 sequence (looked up): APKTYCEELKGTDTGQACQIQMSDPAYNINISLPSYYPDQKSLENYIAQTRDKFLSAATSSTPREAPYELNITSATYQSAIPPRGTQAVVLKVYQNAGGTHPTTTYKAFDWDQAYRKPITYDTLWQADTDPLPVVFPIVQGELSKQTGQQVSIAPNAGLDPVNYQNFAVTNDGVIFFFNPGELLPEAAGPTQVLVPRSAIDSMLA

T4: 结核分枝杆菌特异性重组蛋白38KD (Mycobacterium tuberculosis, UniProt P9WGU1 24-374)
T4 sequence (looked up): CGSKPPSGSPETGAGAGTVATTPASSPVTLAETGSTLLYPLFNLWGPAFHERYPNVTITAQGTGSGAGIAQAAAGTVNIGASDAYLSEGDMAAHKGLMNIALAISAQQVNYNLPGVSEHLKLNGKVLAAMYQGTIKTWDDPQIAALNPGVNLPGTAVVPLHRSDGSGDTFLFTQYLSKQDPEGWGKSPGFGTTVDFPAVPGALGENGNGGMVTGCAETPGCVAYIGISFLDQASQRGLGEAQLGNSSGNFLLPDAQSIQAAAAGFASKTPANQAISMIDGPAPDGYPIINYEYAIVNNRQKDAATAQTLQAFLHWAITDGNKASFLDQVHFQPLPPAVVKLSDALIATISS

T5: 结核分枝杆菌特异性重组蛋白CFP10 (Mycobacterium tuberculosis, UniProt P9WNK5 1-100)
T5 sequence (looked up): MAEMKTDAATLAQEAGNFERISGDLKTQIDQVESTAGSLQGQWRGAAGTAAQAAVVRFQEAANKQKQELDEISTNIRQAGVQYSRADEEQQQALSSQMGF

B1: BJRbL01 (antibody, V domains shown)
VH: QSVEESGGRLVTPGTSLTLTCTVSGFSLSNYDMGWVRQAPGKGLEWIGNIWSNGYTDYASWVNGRFTISKTSSTTMDLKMTSLTTEDMATYFCARGSSGYVGDIWGPGTLVTVSS
VL: DPVLTQTPASVEVAVGGTVTMNCQASHSVYGNNELSWYQQKPGQPPKLLVYKASTLASGVPSRFKGSGSGTQFTLTISDLECDDAAIYYCQGGYWGNRAFGGGTEVVVKG
notes: also called 兔抗LAM单克隆抗体 BJRbL01; 抗LAM抗体
B2: BJRbL03 (antibody, V domains shown)
VH: B1 VH with V3L, S29R, N30S, N49S, G54D, Y55F, I68V, T85S, M88T, A94V
VL: DPMLTQTASSVSAAVGGTVTINCQASQSVYGNNELSWYQQKPGQPPKLLIYKASTLASGVPSRFKASGSGTQFTLTISDLECDDAAIYYCQGGYWGNRAFGGGTKLEIKG
notes: also called 兔抗LAM单克隆抗体 BJRbL03; 抗LAM抗体

How the values were obtained:
Assay in all cases: indirect ELISA, recombinant protein coated on plate
结核分枝杆菌特异性重组蛋白MPT32 = target: T1, 结核分枝杆菌特异性重组蛋白MPT32
结核分枝杆菌特异性重组蛋白EspC = target: T2, 结核分枝杆菌特异性重组蛋白EspC
结核分枝杆菌特异性重组蛋白MPT64 = target: T3, 结核分枝杆菌特异性重组蛋白MPT64
结核分枝杆菌特异性重组蛋白38KD = target: T4, 结核分枝杆菌特异性重组蛋白38KD
结核分枝杆菌特异性重组蛋白CFP10 = target: T5, 结核分枝杆菌特异性重组蛋白CFP10
结核分枝杆菌特异性重组蛋白Mtb81 = 结核分枝杆菌特异性重组蛋白Mtb81 (Mycobacterium tuberculosis, UniProt P9WK17 1-741)
Sequence of 结核分枝杆菌特异性重组蛋白Mtb81 (P9WK17 whole entry): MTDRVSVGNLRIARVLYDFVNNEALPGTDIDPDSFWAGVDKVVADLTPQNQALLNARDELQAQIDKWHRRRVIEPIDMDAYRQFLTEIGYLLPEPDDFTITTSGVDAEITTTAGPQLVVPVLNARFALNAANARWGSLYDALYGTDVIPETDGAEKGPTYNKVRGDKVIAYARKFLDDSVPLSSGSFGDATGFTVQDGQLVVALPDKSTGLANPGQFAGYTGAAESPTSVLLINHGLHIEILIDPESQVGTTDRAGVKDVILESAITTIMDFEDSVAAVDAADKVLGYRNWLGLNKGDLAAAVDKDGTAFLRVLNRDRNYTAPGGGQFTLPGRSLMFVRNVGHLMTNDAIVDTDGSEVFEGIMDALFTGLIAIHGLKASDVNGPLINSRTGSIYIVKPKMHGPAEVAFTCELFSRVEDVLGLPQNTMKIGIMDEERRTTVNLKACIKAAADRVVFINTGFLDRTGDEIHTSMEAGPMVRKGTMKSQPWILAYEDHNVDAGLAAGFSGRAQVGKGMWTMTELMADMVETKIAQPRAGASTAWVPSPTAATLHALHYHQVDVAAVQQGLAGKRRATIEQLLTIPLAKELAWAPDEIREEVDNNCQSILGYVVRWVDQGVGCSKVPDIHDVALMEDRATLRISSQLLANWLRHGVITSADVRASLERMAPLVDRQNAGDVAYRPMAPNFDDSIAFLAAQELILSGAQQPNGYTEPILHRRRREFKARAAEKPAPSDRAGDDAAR

Binder | binding result (结核分枝杆菌特异性重组蛋白MPT32) | binding result (结核分枝杆菌特异性重组蛋白EspC) | binding result (结核分枝杆菌特异性重组蛋白MPT64) | binding result (结核分枝杆菌特异性重组蛋白38KD) | binding result (结核分枝杆菌特异性重组蛋白CFP10) | binding result (结核分枝杆菌特异性重组蛋白Mtb81)
B1 | no binding (tested: protein coated at 5μg/ml) | no binding (tested: protein coated at 5μg/ml) | no binding (tested: protein coated at 5μg/ml) | no binding (tested: protein coated at 5μg/ml) | no binding (tested: protein coated at 5μg/ml) | no binding (tested: protein coated at 5μg/ml)
B2 | no binding (tested: protein coated at 5μg/ml) | no binding (tested: protein coated at 5μg/ml) | no binding (tested: protein coated at 5μg/ml) | no binding (tested: protein coated at 5μg/ml) | no binding (tested: protein coated at 5μg/ml) | no binding (tested: protein coated at 5μg/ml)
